Results reported in the DeepSol protein solubility set.

Experiment: soluble on expression in E. coli; label from the status in PepcDB or PDB records

Sequence	soluble on expression in E. coli
MDKMVSYLFKGEVKNPYVFLVLGKDKEIEHTVRTDVIVVGVLDWKKGNLSFVSIPRDLMIEGKKINAIYNTYGMEKLFQIIESLLGQKPDSYVIFNYEAFKILVDELGPIEVIPNEVMFYEDLSQNLVIDFKPGVPYKLNGEQLLAYIRYRKDSMGDLARIERQKDVLKKLLSKALSRNPLEISVLYKKISPYIETDIGLPEILTLFSKLKNSVRVSFSTLPYNVDSDGSIFVDEKRLVSFKENLIGSSVQEKYRVNFLVVNTSSLVSRVFEANLRGVWKDRVGFEPDRVVWEDVGISQKFEGDHVFIGEPEKEDYILEILRKAHPSRHFTVHRFDRPEDYTMYYTILESLAKNRIYPDFPVSALILIDDFRELEHHHHHH	soluble
MQTFVLATNSETVSQTLCSYLEGVLDLEDSVYAVNSQPGGDRTPPDAVADGKAALEVVSDRLGDQVSVETYQIIRGNSPADDIFDIAAEVDADELVIGVRKRSQTDRLIFGSVAQDIMRQSDYPMRVVPRD	not soluble
MGKKRKHQDSDSEQSGKRVKKVEEARNGVADMTIDESSDFQVFLIKKPIGVSLEDLEALKWSNDEEVLTKTKLKTESGVFRAIVAPKSKKERMVHIPAFREREEADSKNIKAQSFVTGAITILPQEVKPKVLGGFIYEEGEEPVEGSSEVHPGLKKIKKTAILDLESRQQRNKAYGTTTEGDGKPRKLANIIEKMN	soluble
MGKRMTFDTAKSRFQEKFPHLELLEFSGIYKPSSVRCPTHGVVQLLYYDTAIKSKYGCPECGKLKMKENTPPQNQKPVSILDTATGETLTFPSVQAAAKALNTPYGSIRTKLDGRSNPDNLVCNRYKVLL	soluble
METDGDPTNEIPGSSMAFEVANHTVTEEPSPLDRILAEGRSFNGGNWSSDDLRSLLDGVMKYGTKIEAINYIHRNIVKKRSIEEIKAKIDEIREIIKEHKEIILPECYKNKWIEAGHHNITPPPFCQVDPNDDWSSIMGKIVDHHHGSINKTLPSLRDTYETLFENLALESKTHENAVVTKLLTAKATRTDSQNIRWPVIYRFMKACATLEEQMPALNELEAAVVSKVLDTIETEATTTPDTEKSILAGIFSECQQGNYRFCEQDYPPNVMAAVQLFVDPLRTRFHAIPEVASEVELINFTKDNQPSTSSN	not soluble
MSLSMLAVAATALATFAIAPAQAQAEKPKDKVTLMLNWYLYSEHATFFLGKEKGFYAEEGIDLGIQEGRGSAVTAQAVAAKSATFGYIDVTTMIKAAAKGAPLKSTGVLFQVSPMSVMGLSEKNIATPKDIIGKTVAVTPGDSMSQMWPLFLKVNDIRPDQVKVVSGDGQTKLNAVANGQADLLLGYVMDQAIKLQDATGKPVTPIRFADSGVNQISSGIITHKNLLTENPDLVKRFMRASTKAAEAAEKSPEAAVDAMLKAHPKAGVRDTLIVGMKQSVALYHTQETANQRPFRVAMKNVNDSLDLLEGHHHHHH	not soluble
AHHHHHHGSIDPRELAISAKLEGVKRIIPVVSGKGGVGKSLISTTLALVLSEQKYKVGLLDLDFHGASDHVILGFEPKELPEEDKGVIPPTVHGIKFMTIAYYTEDRPTPLRGKEISDALIELLTITRWDELDFLVVDMPPGMGDQFLDVLKYFKRGEFLIVATPSKLSLNVVRKLIELLKEEKHQILGIVENMKLDEEEDVMRIAQEYGIRYLGGIPLYRDLESKVGNVNELLATEFAEKIRGIAKKI	soluble
MNRLLNEKVEEFKKGVLKAGWFIEKMFRNSISSLVERNESLAREVIADEEVVDQMEVEIQEKAMEVLGLFSPIGKPLLTVTAGIRVAELIENIADKCHDIAKNVLELMEEPPLKPLEDIPAMANQTSEMLKFALRMFADVNVEKSFEVCRMDSKVDDLYEKVREELLLYMMESPKYVKRALLLLEIAGNIEIIADYATNIVEVSVYMVQGEAYKCYHDELLLFKKSGGVLFESSD	soluble
ISVLDLTPVSTGQQPGEALRHTLELAEVADSYQYTRFWIAEHHNSGAFVSAATEILIALAAARTGRIRVGSGGVMLPNHSPLKVAENFMSLEALFPGRIDLGLGRAPGTDGRTALALRRSREALAADDFPTQIALLRAFAGETPWPAGSVFDGVLAEPRGVKLPPLWILGSSLYGAQLAGELGVGYAFAYHFSQEDPAVAVQTYHRHFRPGPLAEPYAILGVNALAAPTEDEARDLSLTSAALSLGILSGQRGVLRSPEEARQWLQEMDTDPAKLLKKARIGTPEQVWASLQELGESTGAQEMLVTTYAHDPLKRQQSYRLLAQ	not soluble
MHVLIVDDEPLAREELSYLVSQHPQVTSVAEADSVAEAMEEMMDQKPDLLFLDIHLTDESGFDLAEKLTHLKKAPYLVFATAYDQYALKAFQVNAKDYILKPFEEEKITQVIEKASKEMGQAVPENTAEKGPKSEAIPIQGEDRIYLVAPEDIYLVSVEERQLSIFVDQQVYKMTGTLNSIEQKLPATLFIKTHRSFILNRTKIQEIQPWFNNTLQVILTNGSKVPVSRSYVKEFKEKLGLS	not soluble
MTQPLVGKQILIVEDEQVFRSLLDSWFSSLGATTVLAADGVDALELLGGFTPDLMICDIAMPRMNGLKLLEHIRNRGDQTPVLVISATENMADIAKALRLGVEDVLLKPVKDLNRLREMVFACLYPSMFN	soluble
MDTRTRHLKVSNCPNNSYALANVAAVSPNDFPNNIYIIIDNLFVFTTRHSNDIPPGTIGFNGNQRTWGGWSLNQDVQAKAFDLFKYSGKQSYLGSIDIDISFRARGKAVSTVFDQDELAKQFVRCYESQIFSPTQYLIMEFQGHFFDLKIRNVQAIDLGDIEPTSAVATGIETKGILTKQTQINFFKGR	soluble
MSDEIVTNKSVTYVNNTTPVTITSSELDLRSCYQDDEVVIEVHAAALNPIDFITHQLCNSYIFGKYPKTYSRDYSGVIIKAGKDVDNRWKVGDKVNGMYSHIYGERGTLTHYLILNPAKDVPITHMVEVPKDENDPYDDFVYAAAWPLTFGTAFSTLYDFKKDWTSDSKVLVIGASTSVSYAFVHIAKNYFNIGTVVGICSKNSIERNKKLGYDYLVPYDEGSIVENVKKLKQSVLENDKFDMIFDSVGNHDFFPVIDQFLKPKAKNSFYVTIAGNNKADYKNISWRDFVSLSSILKAINPFKKYNWRFGHPYPPNNFIEVGNEMIKKGTYKPPIDSVYEFDQYKEAIDRLMSNRAKGKVVVKMK	soluble
MSLDLASKYFNDIDWRYVDHSSGLAPMQSFAFDDTFSESVGKDLSCNVVRTWIHQHTVILGIHDSRLPFLKDGIKYLTDEIGYNAIVRNSGGLGVVLDQGVLNISLIFKGQTETTIDEAFTVMYLLICKMFENEDVEIDTREIEHSYCPGKFDLSIDGKKFAGISQRRVRGGIAVQIYLCVEGSGSERAEMMRVFYEHALKGEVTKFKYPDIHPECMASLETLFEREIKVQDVMFQLLHAIKDLGGNLNMDPITEDEWTRYEGYFDKMIDRNEKMNRSIEADEGHHHHHH	soluble
MGSDKIHHHHHHMIPFHDRPFAEYLVEMLRGQGFRRILFLLGYLPDKVTEHFGDGSRFGVEIEYAVSPVEDETGTRLRRVKDRLDDIFVLLYCDNYWPMPFAAMWERYCRLGVEAMVTVYRNRDGYTRDNLRVDDDGLLALYDKSRTAPGLAGVDIGFFILTRAVIDLIPEGGNPSFEKSVYPVLVERRQLAAFETDHRYYSVGSHERLPLTEAFLARNKTVLLDRDGTLNLRMPRAEYVRSWADWQWLPGAREALAELARADYRIILITNQPGLARGALDQAALDAIHGRMIEETQAAGGRIDHIYYCPHNWDEGCDCRKPRPGMLFQAQRDFHLDLSRVTFIGDDDRDGEAAQAAGAPFLQVTESYSLLDAVHDLLAADHSNPVTGKCPD	not soluble
MSNSRSILSQPEWRIVDQSSLGPTFHALQSFAMDDTLCTSIGKGESAATMRSWVHHNTIVLGIQDSRLPHLEEGISFLKENNFNVIVRNSGGLAVVLDEGVLNVSLLFQETEKGIDIDLGYDTMWHLIQEMLKDYDVTIEAKEIVGSYCPGSYDLSIRDQKFAGISQRRIRGGVAVQIYLCATGSGSERAALVRDFYNLAIQGEETRFTYPEIVPSTMASLSELLDETITVQDLMMRLLKTLQQFAPKLTPSQLTIDEIPLYETNLQRIIDRNNKALGLEK	not soluble
MGSDKIHHHHHHMIEIIPAIDIIDGKCVRLSQGDYDSKKVYNENPVEVAKEFEANGVRRLHVVDLDGAASHHVVNHRVLEQIATRTSLIVDFGGGVKSDEDLKIAFESGAQMVTGGSVAVKDPELFCHWLEVYGSEKIILGADVKEHKIAVNGWKDESACELFPFLEDYINKGIQKVICTDISCDGMLKGPSIDLYKEMLEKFPNLYLMASGGVSNVDDIIALNEAGVPGVIFGKALYEGHITLKDLRIFL	not soluble
MGSDKIHHHHHHMSSSPSTLNFGSMTDVFGFLIEIDKLKSVQRRTKIIGSERHEDSAEHSWHFAVAAMALAPYAGEGVDIQRVIQMALIHDIVEIDAGDVIVYDLSARLAIHDQEVAAAARIFGLLPEPQRQQFQDLWEEYEANETPSAQFALVLDRVMPMLMNLYNGGQSWVENGIRLEQVLDRAEFIATINPELWQYMKQHLEDAKAKGWLL	not soluble
MGSDKIHHHHHHMATSQWRLIASICFLALTGWSTKAVSAETDKPPFYQVQWQGKSAYLLGSIHIGRADFYPLPTQIETALGKAKGLVVEVDMNKADSNALLRQYGRADKTKGLDWQSRDKQTVESMTPYCAATANVCQSIQSFAPWLQATQVNLIRYNNLGYSTDYGVDMQLMARHAALPVYQLETAESQFQLLASFDSQAQWSMVREAISTSDADLLSLIAAWRSGNEAELDSIMQEQMGGEGDTEMLEKILWRRNHVMADGIIKLMGSTEITSPLFVVVGAGHVVGDKSVVQLLEQAGAKVSACWKQTCQ	not soluble
MKKEPLFVALSNQKGGVGKSTLTVLLASYFHYHKAKNVLVVDCDYPQHSMMTLREWDIKNVEKTPRLQSLLVEQFGDTGRKAYNILASMPEQAKETAYGFIDRSDTEYDLVLLDLPGTVNTTGVFQSIINMDYVFTPITQERMVMQSSMSFVLSIREYLLHHKGVPLRDIHMFWNKMDKRVSRDLYDAYMEIIRSLGLPVLNTVLPAAERYKKDVGLNGQIFRSTLFPPSAAALKGSNFDLLAAEMETILGL	not soluble
MGSDKIHHHHHHMSQSKPLFPLNAWYAVAWDHEVKHALTPRKLCNLDVVLYRTTAGAVVALEDACWHRLVPLSMGKLRGDDVVCGYHGLVYNAQGRCVHMPSQETINPSACVRGFPVAEKHRYVWVWPGDPAQADVALIPDLHWSHDPAWAGDGRTIHAKCDYRLVLDNLMDLTHETFVHGSSIGQDEVAEAPFEVVHGDRTVTVSRWMHNIDPPPFWAGQIARHLNYHGKVDRWQIIHFEAPGTIAIDVGVAITGTGAPQGDRSQGVNGFVLNTITPETDTTCHYFWAFMRNYALHDQSLTTLTREGVTGVFGEDEAVLEAQQRAIEAHPDHAFYNLNVDAGGMWARRVIDRLIAREQRAGDLSLRMVG	not soluble
MGSDKIHHHHHHMSGPGTYSPPSSRLQYLGCCAGVAGARLVPGPLGGRFPFSNCVLVEDAGFKVLVDTGCEPWERGLVDVDVVVFTHFHPDHIRGFHRLRAGRVAAPEGEEPYAGRLERLALRFAGERWREWISMARLVMDLEGVPEPGEYFRPGEDLCFRGVCIKTYPARGHLQTHTLLELPGGLVHLVDIDLTGFGPWYGNPEASPELFLLDIEAAAEMEARGYLSAHKDRVYSRGEGVEALARFAGRLVEQAEGVYKALEAAGRPLWPWELTGRGIIYRRYLEGMEAIMSYFEGVMIEKLLGLLGLWGCTRKTPGGYVARDCHLGVIKDRITRNILSLA	not soluble
